The target in assay [1] is T1, Interferon receptors on Daudi cells (UniProt P17181).
T1 sequence (looked up) 1: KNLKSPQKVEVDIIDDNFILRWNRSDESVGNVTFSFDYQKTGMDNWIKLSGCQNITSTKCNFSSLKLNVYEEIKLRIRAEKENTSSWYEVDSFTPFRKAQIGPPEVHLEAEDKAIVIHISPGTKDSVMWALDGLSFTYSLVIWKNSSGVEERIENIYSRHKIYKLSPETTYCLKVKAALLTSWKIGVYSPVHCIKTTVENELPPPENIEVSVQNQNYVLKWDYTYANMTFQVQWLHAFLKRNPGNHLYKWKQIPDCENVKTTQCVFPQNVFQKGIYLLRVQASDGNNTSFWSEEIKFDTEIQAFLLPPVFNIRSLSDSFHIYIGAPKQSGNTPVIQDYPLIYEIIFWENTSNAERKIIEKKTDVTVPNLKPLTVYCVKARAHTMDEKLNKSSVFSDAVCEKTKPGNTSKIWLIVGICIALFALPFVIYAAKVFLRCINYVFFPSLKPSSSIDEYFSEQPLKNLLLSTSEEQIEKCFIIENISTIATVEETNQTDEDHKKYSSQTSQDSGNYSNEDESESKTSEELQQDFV
T1 sequence (looked up) 2: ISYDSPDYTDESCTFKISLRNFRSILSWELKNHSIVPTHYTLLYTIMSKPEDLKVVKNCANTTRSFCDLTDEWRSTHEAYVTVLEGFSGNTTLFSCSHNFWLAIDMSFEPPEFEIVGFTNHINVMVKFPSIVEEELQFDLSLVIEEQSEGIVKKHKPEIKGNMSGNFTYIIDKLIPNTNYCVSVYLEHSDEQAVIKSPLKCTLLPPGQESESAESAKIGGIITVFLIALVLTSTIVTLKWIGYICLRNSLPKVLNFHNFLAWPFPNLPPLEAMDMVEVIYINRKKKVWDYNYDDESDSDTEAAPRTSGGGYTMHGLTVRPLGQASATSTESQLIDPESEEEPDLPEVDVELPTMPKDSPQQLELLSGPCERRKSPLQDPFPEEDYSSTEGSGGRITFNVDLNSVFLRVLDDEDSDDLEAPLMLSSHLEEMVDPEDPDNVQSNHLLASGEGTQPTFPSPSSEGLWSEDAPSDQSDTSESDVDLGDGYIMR
The assay is described as follows: cell-based or functional assay.

Assay [2] concerns the target T2, OX40 on reporter cells (Jurkat-OX40-NFκB-luciferase; HEK293-OX40-NFκB-Luc) (UniProt P43489 29-277).
T2 sequence (looked up): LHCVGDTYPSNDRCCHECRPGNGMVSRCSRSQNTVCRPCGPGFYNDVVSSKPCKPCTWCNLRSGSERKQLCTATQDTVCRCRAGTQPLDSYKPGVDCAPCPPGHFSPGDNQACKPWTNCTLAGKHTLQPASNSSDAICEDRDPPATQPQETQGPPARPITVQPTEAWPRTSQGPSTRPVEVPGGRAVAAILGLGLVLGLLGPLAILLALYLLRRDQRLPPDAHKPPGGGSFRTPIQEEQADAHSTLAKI
Description: cell-based or functional assay.

For assay [3], the target named is T2, OX40 on reporter cells …. The assay is described as follows: cell-based or functional assay. This is another data set of the same source.
Assay [4] deals with T3, human OX40 protein (human, UniProt P43489 29-216, limits assumed).
T3 construct: also called TNFRSF4; CD134
T3 sequence (looked up): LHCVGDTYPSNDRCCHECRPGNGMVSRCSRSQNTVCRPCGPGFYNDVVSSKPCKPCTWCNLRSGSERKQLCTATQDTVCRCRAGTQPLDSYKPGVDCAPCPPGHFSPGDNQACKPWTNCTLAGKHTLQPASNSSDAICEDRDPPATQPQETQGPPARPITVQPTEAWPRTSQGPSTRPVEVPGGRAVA
The assay is described as follows: ELISA, plate coated with human OX40 protein, goat-anti-human IgG HRP. (In general: ELISA stands for enzyme-linked immunosorbent assay.)
Description: The next day, the plate was first washed 3 times with 300 μL PBST (Tween 20: 0.5‰), then blocked with 5% BSA/PBS at 100 μL/well for 2 h, and shaken at room temperature, followed by washing 3 times with 300 μL PBST. Gradient dilutions of the fusion protein samples were prepared in PBS, and then added to the 96-well plate at 100 μL/well; the plate was shaken for 1 h at room temperature, followed by washing 3 times with 300 μL PBST. A secondary antibody goat-anti-human IgG HRP solution was prepared and added to the 96-well plate at 100 μL/well, and the plate was shaken for 1 h at room temperature, followed by washing 4 times with 300 μL PBST. TMB was added at 100 μL/well to develop color for 20 min. 0.6N H₂SO₄ was added at 100 μL/well to stop the color development, and the OD values were determined at 450 nm.

Assay [5] has as its target T2, OX40 on reporter cells …. Description: cell-based or functional assay. The source holds these as a separate data set.
Assay [6] concerns the target T3, human OX40 protein. The assay is described as follows: ELISA, plate coated with human OX40 protein, mouse-anti-human IgG HRP.
Description: The next day, the plate was first washed 3 times with 300 μL PBST (Tween 20: 0.5‰), then blocked with 5% BSA/PBS at 100 μL/well for 2 h, and shaken at room temperature, followed by washing 3 times with 300 μL PB ST. Gradient dilutions of the fusion protein samples were prepared in PBS, and then added to the 96-well plate at 100 μL/well; the plate was shaken for 1 h at room temperature, followed by washing 3 times with 300 μL PBST. A mouse-anti-human IgG HRP (GenScript Biotech Corp., Art. No. A01854) solution was prepared and added into the 96-well plate at 100 μL/well, and the plate was shaken for 1 h at room temperature, followed by washing 4 times with 300 μL PBST. TMB was added at 100 μL/well to develop color for 20 min. 0.6N H₂SO₄ was added at 100 μL/well to stop the color development, and the OD (optical density) values were determined at 450 nm.
The target of assay [7] is T4, human OX40 expressed on CHO cells (human, UniProt P43489 29-277).
T4 construct: whole, on cells; also called hsOX40; CHO-hOX40
T4 sequence (looked up): T2 sequence (looked up)
Description: FACS on CHO cells transfected with human OX40.

The EC50 is the midpoint of the concentration-response curve. A high value points to a less potent agent.

Where two headings read alike, the source gives them in different places.

In the case of “pegylated interferon α2 (Pegberon, Xiamen Amoytop Biotech, Batch No. 201811JS19) (ligand)”, the proliferation inhibitory activity on Daudi cells, IC50 in assay [1] worked out at 10600 nM.

B1: MT01-C1 (antibody, human IgG1, V domains shown)
VH: EVQLVQSGAEVKKPGESLKISCKASGYTFTSYVMHWLRQMPGKGLEWMGYINPYNDGTKYNEKFKGQVTISSDKSISTAYLQWSSLKASDTAMYYCANYYGSKFAMDYWGQGTMVTVSS
VL: DIQMTQSPSSVSASVGDRVTITCRASQDISNYLSWYQQKPGGAVKLLIYYTSRLHSGVPSRFSGSGSGTDYTLTISSLQPEDFATYFCQQGITLPWTFGQGTKVEIK
notes: also called OX40 antibody MT01-C1; OX40 mAb MT01-C1
Consider B1, for which the “Activation activity of OX40 signaling pathway EC50” value turned out to be 0.178 nM in assay [2] and 0.325 nM in assay [3]. Further, in the assay with human OX40 protein [4], the EC50 stood at 298 ng/mL. The “activate NFκB-luciferase reporter, EC50” value in assay [5] is 0.0452 ng/mL.

B2: MT01-C1 as described in Example 11 (human IgG4 (S228P), κ) (antibody, V domains shown)
VH: B1 VH
VL: B1 VL
notes: also called OX40 antibody MT01-C1; MT01-C1 mAb
As for B2, in the assay with human OX40 protein [6], a half-maximal effect (EC50) was put at 1.21 nM.

B3: MT01-L1 (antibody, V domains shown)
VH: EVQLQQSGPELVKPGASVKMSCKASGYTFTSYVMHWLKQKPGQGLEWIGYINPYNDGTKYNEKFKGKAKLTSDKSSSTAYMELSSLTSEDSAVYYCANYYGSKFAMDYWGQGTSVTVSS
VL: DIQMTQTTSSLSASLGDRVTISCRASQDISNYLSWYQRKPDGAVKLLIYYTSRLHSGVPSRFSGSGSGADYSLTISNLEQEDIATYFCQQGITLPWTFGGGTKLEIKR
As for B3, it took 660 ng/mL to reach a half-maximal effect in assay [7] (EC50).

Values taken from patent US20210198375A1 (NANJING UMAB BIOPHARMA, published 2021).
